The record followed here is the DeepSol protein solubility set.

The nature of the data set: soluble on expression in E. coli; label from the status in PepcDB or PDB records.
As to “MGSDKIHHHHHHKETGNMPEIKKQPIASAVPDFNADSAYAYVANQVAFGPRVPNTAAHKACGDYLASELKRFGAKVYQQEAILTAYDGTKLEARNIIGSFDPENSKRVLLFAHWDSRPYSDHDPDPSKHRTPLDGADDGGSGVGALLEIARQIGQKAPGIGIDIIFFDAEDYGTPEFVTDYTPDSWCLGTQFWAKNPHVPNYTAEYGILLDMVGGKNATFFKEQQSLRAAAPIVEMVWSAARDLGYGKYFINAAGGAITDDHQYVISGRNIPSIDIINYDPESKTGFASYWHTQKDNMENIDRETLKAAGQTVLEVIYNR”, the “soluble on expression in E. coli” value is on record as “not soluble”. Consider “MGSDKIHHHHHHKIKQTAGRDQLGTFAPKFAELNDDILFGEVWSRTEQLGLRDRSLVTITSLISQGITDSSLTFHLQSAKNNGITRTEIAEIITHIGFYAGWPKAWAAFRLAKEVWNEDISCKDKDEKTTFQREMIFPIGEPNTAYAQYFTGNSYLAPISREQASISNVTFEPRCRNNWHIHHATQGGGQMLIGIAGRGWYQEEGKAAVEILPGTVIHIPANVKHWHGAAANSWFAHLAFELSGENTSNEWLEPVTDEEYDKIQMLP”, for which the “soluble on expression in E. coli” value is recorded as “not soluble”. With “MGSDKIHHHHHHKVEGNGNIITKEISVDNYSEIELGGNIEYSGNNFWGNRSNKKFPVFKYTHGRSASLKITIDENLFPLLSIKSNNGRLAIRIQDGTRIKPTQYVIEGSSKTLKYLKTSGPMDFEAQNAFSEDQLEIKISGSSDVKFPHNVKLRLGEFSVSGSGDLVFEDLDCKNLTSKVSGSGDITLKGKADEARYSVSGSGDIKAYDLSVNDLSCSVSGSGDARVYAKDNMNLSVSGSGDIRYKGPANVNKSKSGSGSIQGAN” the entry was “not soluble”; with “MGSDKIHHHHHHLCRRLDGLNPNQQALCAENPFSIPFVARGVREAIRECENKFKFERWNCSSRDEVTETRHGKFQDILGKTLRSANKEAAFLNAIMAASIVHSITKGCNTGNLTECGCDSKPGMQRYQAESDPSMSRDQFSWGGCSDNVPHGIRYAKKFLDDWETAQFDKTKNVAHLVRRHNNFVGREAIAQNIRRQCRCHGVSGSCEFKTCWLQMQKFSQVSDLLKKRYDHFAVQVTRKATKRLRRKERTERKIPLRGNEMAYVHRSPSYCEKNLTAGILGTSGRECIHNSYSSESCDLLCCGRGYNTRLEIRQTQCECKFVWCCEVKCKTCTEEVAVHTCK”, “not soluble”; with “MGSDKIHHHHHHLGNNAPRIIDFADSKGKGIIKYRYASMGAGQASSFQKKFTGKEPVEKIQHYLHVVFKEQLGKLYTAKTHEKMNLLSYYEFDNISAGKLKASIGNVYQGNIEANEFILHANSFPNPLNFYKNDLDTYLKNNNMYAFQSYVHGDLNGANIIIDAQDNVWIIDFFHTHRGHVLKDLVKLENDLLYIFSEMHSESDFQEALKISEVLFAVSDLQASLPDITQTGITKPSFVRVYKTLSYLRSLYSDLVEWDRNPLQVFIAQLRYSMHSLIFDECNQWQKEWALYNSGKFSQIISNKFLETDKLRIDFIKSDKIDAHSLALTILPGRKDYSRDLSEDLKEIKEQQIDCVVSLITKDEMDMYGVPELLDVYKKQGVECLHVPVIDQKIPVKAEIERINAFINAQQKKHKKVLIHCVGGLGRSGLVAACYLKSLGYPSDDAIKIVREARSSRAIESTEQEKFVYDYNERTV”, “not soluble”. As for “MGSDKIHHHHHHLKQKILHIIDSFSTGGAEVLLAGVIPELVDFEHVIVYLTPTKTPILSSDPTIKIVCLNFRSITDATRIIKDLNTIIEQEKPGIIHTHLYFSSLFIRFARTNKINIIQTYHNEYYRIRYPQFSARIKKIGLKLLDRFTMKNAYTVIHVSKAQQLVNDHDVRIKSSAVLYNYVEDQFYQTRKTSSFKGTGKLKIICVGNLKTEKNHILLLHALRQLMHLPIHVTICGEGNDYIMLQKYINRYDLPVTLMGSQKNIHELLGQHDLFVSCSIIEGFGISIAEAMASEIPLIISDISTFKEVTQNKAVFFESRNVASLAEKIEQFYLSPQSAAASVLACKEIAEQYKKSFYLDRLNTLYKK”, the entry is “not soluble”; as for “MGSDKIHHHHHHLPKLREDFKMQNKSVFILGASGETGKVLLKEILGQNLFSKVTLIGRRKLTFEEEAYKNVNQEVVDFEKLDVYASAFQGHDVGFCCLGTTRSKAGAEGFVRVDRDYVLKSAELAKAGGCKHFNLLSSRGADKSSSFLYLQVKGEVEAKVEELKFDRLSVFRPGVLLCDRQESRPGEWLARKFFGSLPDSWASGYAVPVVTVVRAMLNNLVSPSSGQMELLENKAILHLGKDRDVPKL”, “soluble”; as for “MGSDKIHHHHHHLPTIEQNRAPPFLAGLFCAIDLERRFLSNGKQKDFIMLDANTAQNPALLTVGYEGTDLRRFLACLEQSGVKTLVDVRERAQSRKKGFSKTALAEALAGIGIRYVHLRDLGDPKPGRDAARAGDYETFRKVFTSHMDTDAAKSALSELDTLAKEDRTCILCFERCHTECHRAIVATYLKELSPYDVVHVEV”, “not soluble”.

“MGSDKIHHHHHHLRALGYQGRDVEVVALNDAQYLVAACDSCGAIGEKELDAVKVPWRVTGRMTARVALLEVLAVGAVPQMLSIAIANEPLPAGEEIMKGVREELKAMNLLSLPAAVSTEKNMPTEQTGLGITVIGLCDQDKLRIGRARPGNSLFCLGLPKVGTEAADPEDPDILQGIHLIQLLNIPGVYDIIPVGSQGIRGEAEALAQAVGARFGEDSQCRLDINKSAGPSTCLIFTAAEDIELGDFGKLPIHKIGRLEEDGGGGLLTENED”: the “soluble on expression in E. coli” value is “not soluble”.

As for “MGSDKIHHHHHHLRTNTPTFINIRNSYKIKTIMHFHLSGNAASDLKIVRFEDFSGSADAFRQHWYVHRVTMQRRKHVIVMEESTRYALLFCRVTQPFFKNFPEFFADTLWRHIVSLCAVPTARFGSIQAMTTDMCSENIYHKGLNRSVQAHIRDSFLTLECYLLHEPPINLARQEDVFQMNIRINETPRTRYGEKNYIWSLREFQRLWCEHLGVAAVRG”, the “soluble on expression in E. coli” value is “not soluble”. As to “MGSDKIHHHHHHLVGSGGTGAPPPRSSPMTTLYVTQPGSVVRSEGGSLTVWVETEADDPGPNDSPVRRKRLASVEPHRLESLVLLGFTTITANAMRLCMANKIAVSLLDGGGGLAARVVPPEARSADLRLHQYALHLDPPERLIRARAVVTAKLRNAAAVLRGIRSNQASSAALASAITQTEASAEAAAAAVSAESLLGIEGNGAHQYFAGLRTAFVGGIPFLGRAQRPPPDPANSLLSFGYVLLGNRLTGLLEARGVDPCLGFFHDLRPGRPSLALDLLEELRHPVVDRLALRICNLRKIQPQHFEPDAERPGGVKLTVDGRKIFLEEWEGHLARPLREPGVAAEHRLDVHRLLQRQVDRLVSDLRGGEPYRPFRFGTSRPG”, the “soluble on expression in E. coli” value is “not soluble”.

Turning to “MGSDKIHHHHHHMAAGHGVRPARVAISLYPGCAQLYLQAQRAGKAVEALETPEAHFSVLESISLEEQMLILRSVLKRSQEQREKDFELMIQAYLSGNLDKVGALDSALGVDGLPAGLWEKIRVKLLDERNMRMAERIAAAASLQPVFVAVGAAHLPGEGGLIDLLSRAGLPYLPSIASDARRRLTFMPHLPLTHARYNSSYFRRMDGLTMADRINLRPLERNDLHFVHKLNNNDTIMRYWFEEPYEAYDELVALYDRHIHDQNERRFIIELDNGELAGLVELVEINYIHRRAEFQIIIAPDYQGRGLAKSATRIAVGYAFRVLNLHKVYLVVDKENQAAIHVYEACGFEVEGRLKEEFFSNGSYRDVLRMRLLQDDYLRHVGPAPVDASVLREWQDQ”, the “soluble on expression in E. coli” value is recorded as “not soluble”. For “MGSDKIHHHHHHMAAILPARITKVLPDSIAAEIGFEAGDALVAINGVQPRDLIDYKFLCSDEFLELEVLDASGKTHHIEIEKDYDEDLGLEFETALFDGLIQCNNRCPFCFIDQQPPGKRSSLYLKDDDYRLSFLYGSYLTLTNLPEREWQRIEQMRLSPLYVSVHATEPEVRIRLLKNQRAAQILDQLRWFQARRLQIHAQVVVCPGINDGKHLEQTLRDLASFHDGDVPTVASVAVVPVGLTRFRPEEDELIPVTREKAQEVIAQVRSLTQEFRRQFGSNVAWLADEWFLIAGEELPSEAEYEEYPQIDNGVGSIRLFLKQFAETAAELLPTKINHPKKLTWVVGNAVEKAFQPILKSLNAVEGLEINMCALSSDYWGQTISVTGLITGHDLLLHLKEQDLGGGILLPNVMLKHGELVFLDDMSVEEVAQKLHTKIIPIAGVKELIKTCITDSVSV”, the “soluble on expression in E. coli” value was “not soluble”. As for “MGSDKIHHHHHHMAAVGPRTGPGTGAEALALAAELQGEATCSICLELFREPVSVECGHSFCRACIGRCWERPGAGSVGAATRAPPFPLPCPQCREPARPSQLRPNRQLAAVATLLRRFSLPAAAPGEHGSQAAAARAAAARCGQHGEPFKLYCQDDGRAICVVCDRAREHREHAVLPLDEAVQEAKELLESRLRVLKKELEDCEVFRSTEKKESKELLKQMAAEQEKVGAEFQALRAFLVEQEGRLLGRLEELSREVAQKQNENLAQLGVEITQLSKLSSQIQETAQKPDLDFLQEFKSTLSR”, the entry is “not soluble”; as for “MGSDKIHHHHHHMAAWRTVVIATSCHLRVRDRQLVIESREGERTQLPLADIGVVIVENPQVTLSAALLSALAQEGTALMSCDSSHLPDGVFAPFGTHSRHTRAARVQAVWSEPFKKRCWQKIVRAKVSSQAEVLRRVGAEDAARRLENLVGKVTSGDTTGVEAQAAQVYWRSLFVNFKRWDGGLDARNGGLNYGYAVLRGALGRAIAGAGLIPAFGLHHAGELNSFNLADDLIEPFRPFVDLLVWGLFLERTGDDPLTREERMRIAQILGESCIMTERYETLLSATQIIARSLVSAGEQKESRRLILPWMGEDDVQGEVYEADGDV”, “not soluble”; as for “MGSDKIHHHHHHMADDETRKYVIPGLERGLTILMALSRSHREMSLAEIVKCVEWPKASVYRAVQTLEYMGFVRRHPSSGLYSLGVSVLRLGFEYVSSLDLVQVGQPVIESLRDRSGCSSHIVIRDGRDVIYVARVSAAGTTTHRVSVGTRLPVHRTSLGRVLLTGMSREAFERLYPDPELPDTRPGAPADREALWQLVQDDRARGYVVGESFFQLGISSIVYPLFTQEGDVAGAISIMVPVHEIPAEDRERLRGYVEDAAMTISEMLGYHDPRARRSDMP”, “not soluble”. On to “MGSDKIHHHHHHMADLKKQIASGKIAPVYFFQGPESWLKEEIETQLKAAIFPSENEAALNTLVLYGPDLTLGQIVSAASEYPMFTEKKLVVVRQFDKLKKVTDKTESQRQEKSLLSYLSDPPSFTVLVLDADEIEKTELEKAPYKHLKAFRHDFGAIKNAEIFAAERAREAGWEFEPEALKTFSGYIEPSSRLICQEIEKLTLYASNKRPERRITLDDVCDCVGISRKYNVFELEKALVSKNLRQCSGIALMIMEQEGQKEGLMNIVRYLTTFFLRIWKLQTPGAQQLSLQETAAMLGMYGRQEYFAKNFIGYARQFSAAETENAILALRDADAALKGIIPSPDDRFTLLKLMQQLFN”, for which the “soluble on expression in E. coli” value is “not soluble”. As for “MGSDKIHHHHHHMADYQQMWANLGMDLEKHDVLCEVLPEAFGGVYLTQQDRPKGMDFYDFVVSEIHGVRPAEMLQHQKEGGKVFGTFCVYVPDEVVFAAGGIAAGLCGGSQFWVSGGEKVLPANTCPLIKASVGARLDKTCPFFLIPDMYVAENTCDGKKKAWEILAGEVPMHIIDIPQMKRERDVAAFAAEIRDFIGVVEKVTGKKINAESLGEAIKLINNKRRALQRVYNARKASPVPISGKDALLVTQINFYDDPARAAQMANNLADELEQRINNGTGVFPENAPRIMISGTPMAIPNWKLHHIVESLGAAIVVEESCTGTRYFENLVDETASTLDEQIRALAERYMKTNCACFTPNSARIDDIIRLADEYKVDGIIDTNLQFCNLYSTESYLIKQVMTERNLPIIHIETDYSEQDFEQLRTRVEAFLEMLRK”, the entry is “not soluble”.
